According to publication PMC6889386:

Target: EGFR on A549-derived exosomes (A-Exo) (UniProt P00533)
Experiment: flow cytometry
Details: MSN-aptamer conjugates incubated with PKH67-labelled exosomes in cell medium or rat blood (37 C, 1-4 h, static or 100 rpm), buffer details not given

Sequence | binding signal (% positive events) (amino-functionalized (terminus not stated), EDC/NHS-conjugated to MSN-COOH nanoparticle) | binding signal (% positive events) (carboxyl-functionalized (terminus not stated), EDC/NHS-conjugated to MSN-NH2 nanoparticle)
TACCAGTGCGATGCTCAGTGCCGTTTCTTCTCTTTCGCTTTTTTTGCTTTTGAGCATGCTGACGCATTCGGTTGAC [anti-EGFR DNA aptamer on negatively charged MSN (MSN-AP-)] | 8.1 | 
TACCAGTGCGATGCTCAGTGCCGTTTCTTCTCTTTCGCTTTTTTTGCTTTTGAGCATGCTGACGCATTCGGTTGAC [anti-EGFR DNA aptamer on positively charged MSN (MSN-AP)] |  | 26.6
